What all share (test): cell-based or functional assay
The target in assay [1] is HIV-1 Env of isolate TRO.11 (Acute), clade B (HIV-1).
For assay [2], the target named is HIV-1 MGRM-AE-007 Env (pseudovirus) (HIV-1).
In assay [3] the target is HIV-1 Env of isolate MGRM-A-008 (clade A pseudovirus) (HIV-1).
Assay [4] addresses HIV-1 Env of isolate MGRM-D-020 (clade D pseudovirus) (HIV-1).
Assay [5] has as its target HIV-1 Env of pseudovirus MGRM-G-011 (HIV-1).
For assay [6], the target named is HIV-1 92UG005 envelope (Env) on pseudovirus (HIV-1).
For assay [7], the target named is HIV-1 Env of pseudovirus MGRM-G-028 (HIV-1).
Assay [8] has as its target HIV-1 envelope glycoprotein (Env) of isolate MGRM-C-020 (HIV-1).
The target in assay [9] is HIV-1 envelope glycoprotein (Env) of isolate 93IN905 (HIV-1).
Assay [10] has as its target HIV-1 envelope glycoprotein (Env) of isolate MGRM-C-025 (HIV-1).
The target in assay [11] is HIV-1 Env of isolate MGRM-A-004 (clade A pseudovirus) (HIV-1).
Assay [12] deals with HIV-1 MGRM-AG-002 Env (pseudovirus) (HIV-1).
The target of assay [13] is HIV-1 Env of isolate QH0692.42 (Acute), clade B (HIV-1).
The target of assay [14] is HIV-1 Env of isolate 92UG024 (clade D pseudovirus) (HIV-1).
The target of assay [15] is HIV-1 Env of isolate MGRM-A-002 (clade A pseudovirus) (HIV-1).
In assay [16] the target is HIV-1 Env of isolate 92RW026 (clade A pseudovirus) (HIV-1).
For assay [17], the target named is HIV-1 envelope glycoprotein (Env) of isolate PVO.4, on pseudovirus (HIV-1).
Assay [18] concerns the target HIV-1 JR-CSF Env N411A (HIV-1 (isolate JR-CSF)) (UniProt P20871).
In assay [19] the target is HIV-1 Env of isolate MGRM-F1-020 (pseudovirus) (HIV-1).
In assay [20] the target is HIV-1 envelope glycoprotein (Env) of isolate CAAN.A2, on pseudovirus (HIV-1).
Assay [21] has as its target HIV-1 envelope glycoprotein (Env) of isolate APV_13, on pseudovirus (HIV-1).
Assay [22] deals with HIV-1 envelope glycoprotein (Env) of isolate MGRM-Chronic-B-004, on pseudovirus (HIV-1).
The target in assay [23] is HIV-1 Env of isolate MGRM-AG-012 (pseudovirus) (HIV-1).
The target of assay [24] is HIV-1 envelope glycoprotein (Env) of isolate MGRM-Chronic-B-001, on pseudovirus (HIV-1).
The target of assay [25] is HIV-1 envelope glycoprotein (Env) of isolate 92WR009, subtype A (HIV-1).
Assay [26] deals with HIV-1 JR-CSF Env P313A (HIV-1 (isolate JR-CSF, clade B)) (UniProt P20871).
The target in assay [27] is HIV-1 Env of pseudovirus MGRM-F1-012 (HIV-1).
For assay [28], the target named is HIV-1 Env of pseudovirus MGRM-F1-021 (HIV-1).
Assay [29] addresses HIV-1 envelope glycoprotein (Env) of isolate MG RM-AG-001 (HIV-1).
Assay [30] has as its target HIV-1 Env of isolate 92RW008 (subtype A) (HIV-1).
For assay [31], the target named is HIV-1 Env of isolate MGRM-G-016 (subtype G) (HIV-1).
In assay [32] the target is HIV-1 Env of isolate MGRM-C-027 (subtype C), on pseudovirus (HIV-1).
In assay [33] the target is HIV-1 Env of pseudovirus isolate CAAN.A2 (clade B) (HIV-1).
Assay [34] deals with HIV-1 Env of isolate MGRM-C-025 (subtype C), on pseudovirus (HIV-1).
Assay [35] addresses HIV-1 Env of isolate 92UG024 (HIV-1).
Assay [36] addresses HIV-1 Env of isolate 98CN009 (HIV-1).

PGT-142 (4995_E20) (antibody), sequence (VH): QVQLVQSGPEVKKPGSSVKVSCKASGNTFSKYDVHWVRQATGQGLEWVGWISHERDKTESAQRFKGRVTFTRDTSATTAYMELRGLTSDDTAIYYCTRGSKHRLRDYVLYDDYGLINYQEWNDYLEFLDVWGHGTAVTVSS
PGT-142 (4995_E20) (antibody), sequence (VL): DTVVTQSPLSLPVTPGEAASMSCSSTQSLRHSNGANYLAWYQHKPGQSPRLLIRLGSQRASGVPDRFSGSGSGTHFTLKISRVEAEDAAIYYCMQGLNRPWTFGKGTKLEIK
PGT-145 (4995_P16) (antibody), sequence (VH): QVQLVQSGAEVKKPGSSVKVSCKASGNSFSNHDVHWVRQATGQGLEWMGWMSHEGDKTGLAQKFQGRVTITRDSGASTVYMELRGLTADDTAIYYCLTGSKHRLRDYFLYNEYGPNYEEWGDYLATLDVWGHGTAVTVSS
PGT-145 (4995_P16) (antibody), sequence (VL): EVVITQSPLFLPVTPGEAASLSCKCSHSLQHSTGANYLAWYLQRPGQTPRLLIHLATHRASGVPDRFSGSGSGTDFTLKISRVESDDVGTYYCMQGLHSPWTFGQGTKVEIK
PGT-141 (4964_G22; 4993_K13) (antibody), sequence (VH): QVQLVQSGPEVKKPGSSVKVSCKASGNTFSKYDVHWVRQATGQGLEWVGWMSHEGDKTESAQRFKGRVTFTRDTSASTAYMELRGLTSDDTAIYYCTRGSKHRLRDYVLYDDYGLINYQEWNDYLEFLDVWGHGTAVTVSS
PGT-143 (4980_N08) (antibody), sequence (VH): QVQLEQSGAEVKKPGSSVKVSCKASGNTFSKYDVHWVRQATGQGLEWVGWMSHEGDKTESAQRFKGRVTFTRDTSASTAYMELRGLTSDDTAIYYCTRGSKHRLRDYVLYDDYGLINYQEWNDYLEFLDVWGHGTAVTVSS
PGT-143 (4980_N08) (antibody), sequence (VL): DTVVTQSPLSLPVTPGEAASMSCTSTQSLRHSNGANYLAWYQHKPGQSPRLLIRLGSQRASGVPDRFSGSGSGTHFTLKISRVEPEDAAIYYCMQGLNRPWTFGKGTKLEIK
PGT-144 (4970_K22) (antibody), sequence (VH): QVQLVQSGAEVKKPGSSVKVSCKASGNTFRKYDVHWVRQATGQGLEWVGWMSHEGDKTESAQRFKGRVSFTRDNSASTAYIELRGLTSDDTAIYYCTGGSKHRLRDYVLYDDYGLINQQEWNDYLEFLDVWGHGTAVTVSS
PGT-144 (4970_K22) (antibody), sequence (VL): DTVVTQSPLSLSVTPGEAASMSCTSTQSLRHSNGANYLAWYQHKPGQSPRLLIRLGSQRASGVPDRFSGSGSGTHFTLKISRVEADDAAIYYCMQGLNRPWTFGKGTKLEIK
1443_C16 (PG16) (TCN-116) (antibody), sequence (VH): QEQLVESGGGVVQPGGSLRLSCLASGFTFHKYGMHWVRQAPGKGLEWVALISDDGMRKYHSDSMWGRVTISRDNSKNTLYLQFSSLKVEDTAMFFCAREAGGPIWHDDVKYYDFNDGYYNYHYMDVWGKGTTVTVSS
1443_C16 (PG16) (TCN-116) (antibody), sequence (VL): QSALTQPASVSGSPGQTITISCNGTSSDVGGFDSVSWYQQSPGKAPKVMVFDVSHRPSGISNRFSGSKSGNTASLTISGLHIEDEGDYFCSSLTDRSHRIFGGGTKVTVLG

Turning to 1443_C16 (PG16) (TCN-116) (antibody), the IC50 (µg/ml), pseudovirus neutralization in assay [1] was 0.22 µg/mL; in assay [2] it was 0.04 µg/mL; in [3] it was greater than 50 µg/mL; in assay [5], 0.04 µg/mL; in [7] it was 3.09 µg/mL; in assay [8], greater than 50 µg/mL. The IC50 (µg/ml), pseudovirus neutralization in assay [9] was 0.25 µg/mL; in assay [10] it was 0.04 µg/mL; in [11] it was 0.04 µg/mL; in assay [12] it was 0.03 µg/mL; in assay [13], greater than 50 µg/mL; in [15] it was 0.004 µg/mL. In [16], the IC50 (µg/ml), pseudovirus neutralization was determined as 0.03 µg/mL. Further, the IC50, pseudovirus neutralization in assay [4] came to 16.3 µg/mL; in assay [14], 24 µg/mL. The substance further showed a neutralization IC50 in assay [6] greater than 50 µg/mL.

As to 4E10 (antibody), the IC50 (µg/ml), pseudovirus neutralization in assay [1] is 1.39 µg/mL; in [2], 0.45 µg/mL; in [3], 7.59 µg/mL; in assay [5] it was 1.44 µg/mL; in [7], 6.32 µg/mL; in [8], 2.8 µg/mL. Further, the IC50 (µg/ml), pseudovirus neutralization in assay [9] worked out at 1.26 µg/mL; in assay [10], 5.58 µg/mL; in [11], 3.14 µg/mL; in [12] it was 0.8 µg/mL; in assay [13] it was 12.7 µg/mL; in assay [15], 6.45 µg/mL. For the same substance, the IC50 (µg/ml), pseudovirus neutralization in [16] worked out at 12.9 µg/mL. Also, the IC50, pseudovirus neutralization in assay [4] is greater than 50 µg/mL; in [14], 2.17 µg/mL. Moreover, the neutralization IC50 in assay [6] stood at 8.86 µg/mL.

Regarding 2F5 (antibody), the IC50 (µg/ml), pseudovirus neutralization in assay [1] was greater than 50 µg/mL; in assay [2] it was 0.07 µg/mL; in assay [3], greater than 50 µg/mL; in assay [5] it was 1.16 µg/mL; in assay [7], 2.24 µg/mL; in assay [8] it was greater than 50 µg/mL. Moreover, the IC50 (µg/ml), pseudovirus neutralization in [9] was greater than 50 µg/mL; in [10], greater than 50 µg/mL; in assay [11], 7.49 µg/mL; in [12], 0.54 µg/mL; in [13] it was 5.42 µg/mL; in assay [15], greater than 50 µg/mL. In assay [16], this substance gave an IC50 (µg/ml), pseudovirus neutralization of 8.63 µg/mL. Moreover, the figures for the IC50, pseudovirus neutralization in assay [4] and in [14] were greater than 50 µg/mL and 0.95 µg/mL, respectively. The substance further gave a neutralization IC50 in [6] of 11.8 µg/mL.

As to 4858_P08 (PGT-123) (antibody), the IC50, pseudovirus neutralization worked out at 0.105 µg/mL in assay [17]; 0.015 µg/mL in assay [20]; 0.138 µg/mL in assay [21]; 0.008 µg/mL in assay [22]; 0.15 µg/mL in [24]; 15.7 µg/mL in assay [25]. In addition, the Fold IC50 increase relative to wild-type (pseudovirus neutralization) in assay [18] was 0.5 fold. In addition, the IC50 (µg/mL), pseudovirus neutralization is 0.051 µg/mL in [19] and greater than 50 µg/mL in assay [23]. Also, in assay [26], the Fold IC50 increase relative to wild-type amounted to 0.2 fold.

With 1495_C14 (PGC14) (antibody), the IC50 (µg/ml), pseudovirus neutralization in assay [1], in [2], in assay [3], in assay [5], in assay [7] and in assay [8] was greater than 50 µg/mL throughout. Besides, the IC50 (µg/ml), pseudovirus neutralization in assay [9] was 19 µg/mL; in assay [10], greater than 50 µg/mL; in [11], greater than 50 µg/mL; in assay [12], greater than 50 µg/mL; in assay [13] it was greater than 50 µg/mL; in assay [15] it was greater than 50 µg/mL. The IC50 (µg/ml), pseudovirus neutralization in [16] was greater than 50 µg/mL. For the same substance, the IC50, pseudovirus neutralization in assay [4] and in [14] was greater than 50 µg/mL in each case. Moreover, in assay [6], the neutralization IC50 is greater than 50 µg/mL.

On to PGT-141 (4964_G22; 4993_K13) (antibody), for which the IC50, pseudovirus neutralization in assay [27] and in assay [28] was greater than 50 µg/mL each time. Also, the IC50 in assay [29] was found to be 18 µg/mL.

As to VRC01 (antibody), the IC50, pseudovirus neutralization in [30] is 0.037 µg/mL; in assay [27], 0.488 µg/mL; in [33] it was 0.722 µg/mL; in assay [28], 0.039 µg/mL. The results for the IC50 (µg/mL), pseudovirus neutralization in assay [31], in [35] and in assay [36] were 0.063 µg/mL, 0.576 µg/mL and 0.346 µg/mL, respectively. Also, the IC50, single-round pseudovirus neutralization in [32] turned out to be 0.125 µg/mL; in assay [34], 2.36 µg/mL. Moreover, the IC50 in assay [29] amounted to 0.228 µg/mL.

As to 2G12 (antibody), the IC50 (µg/ml), pseudovirus neutralization in assay [1] is 0.29 µg/mL; in [2] it was greater than 50 µg/mL; in assay [3], greater than 50 µg/mL; in assay [5], greater than 50 µg/mL; in assay [7], 28.2 µg/mL; in assay [8], 18.6 µg/mL. Besides, the IC50 (µg/ml), pseudovirus neutralization was greater than 50 µg/mL in assay [9]; greater than 50 µg/mL in assay [10]; greater than 50 µg/mL in assay [11]; 0.54 µg/mL in [12]; 4.39 µg/mL in [13]; greater than 50 µg/mL in assay [15]. For the same substance, in assay [16], the IC50 (µg/ml), pseudovirus neutralization was 17.2 µg/mL. For the same substance, the IC50, pseudovirus neutralization is greater than 50 µg/mL in assay [4] and 0.42 µg/mL in assay [14]. The same substance displayed a neutralization IC50 in assay [6] greater than 50 µg/mL.

In the case of PGT-144 (4970_K22) (antibody), the IC50, pseudovirus neutralization in assay [27] and in assay [28] was greater than 50 µg/mL in each case. In addition, the IC50 in [29] is greater than 50 µg/mL.

As to 5145_B14 (PGT-127) (antibody), the IC50, pseudovirus neutralization in [17] was 0.164 µg/mL; in assay [20] it was 0.371 µg/mL; in [21], 0.026 µg/mL; in assay [22], 0.018 µg/mL; in [24], greater than 50 µg/mL; in assay [25], greater than 50 µg/mL. In [18], this substance yielded a Fold IC50 increase relative to wild-type (pseudovirus neutralization) of 0.8 fold. The IC50 (µg/mL), pseudovirus neutralization in [19] and in assay [23] was greater than 50 µg/mL in each case. Moreover, the Fold IC50 increase relative to wild-type in assay [26] came to 1.3 fold.

Turning to PGT-142 (4995_E20) (antibody), the IC50, pseudovirus neutralization in assay [27] and in assay [28] was greater than 50 µg/mL each time. In assay [29], this substance yielded an IC50 of 12.4 µg/mL.

Regarding PGT-143 (4980_N08) (antibody), the IC50, pseudovirus neutralization in assay [27] and in assay [28] was greater than 50 µg/mL each time. Further, the IC50 in assay [29] was 18.9 µg/mL.

Consider PGT-145 (4995_P16) (antibody), for which the IC50, pseudovirus neutralization in assay [27] came to 0.113 µg/mL; in [28], 8.04 µg/mL. Further, the IC50 in [29] is 0.164 µg/mL.

Values taken from patent US20240132578A1.
